Source: doi:10.1101/2023.12.13.571451 (bioRxiv, 2023)

Target: T1, Tsa1^WT-HA (peroxiredoxin Tsa1, single C-terminal HA tag at the endogenous locus) (S. cerevisiae, UniProt P34760 1-196)
T1 sequence (looked up): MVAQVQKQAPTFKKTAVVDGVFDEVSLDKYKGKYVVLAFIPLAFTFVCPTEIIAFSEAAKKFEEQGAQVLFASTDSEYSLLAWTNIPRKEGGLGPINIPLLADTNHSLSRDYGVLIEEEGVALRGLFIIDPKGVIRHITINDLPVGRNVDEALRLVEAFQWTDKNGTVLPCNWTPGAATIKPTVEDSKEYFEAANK
Test: in vitro thioredoxin reaction, non-reducing SDS-PAGE with immunoblot

binding result: binds
B1: recombinant Trx1-HIS (enzyme, S. cerevisiae, UniProt P22217 1-103, looked up)
chain: MVTQFKTASEFDSAIAQDKLVVVDFYATWCGPCKMIAPMIEKFSEQYPQADFYKLDVDELGDVAQKNEVSAMPTLLLFKNGKEVAKVVGANPAAIKQAIAANA
